These results are taken from patent US20230012273A1 (Boehringer Ingelheim, published 2023).

As a reminder, the Kd is the concentration at which binding is half-saturated. Usually koff stands for the first-order rate constant of dissociation. The term kon denotes the second-order rate constant of association.

The target in experiment [1] is T1, cynoSIRPα (EGM_02252), Extracellular Domain + His-Tag (cynomolgus monkey).
T1 construct: also called CySIRPα EGM_02252; not shown: His-Tag
T1 chain: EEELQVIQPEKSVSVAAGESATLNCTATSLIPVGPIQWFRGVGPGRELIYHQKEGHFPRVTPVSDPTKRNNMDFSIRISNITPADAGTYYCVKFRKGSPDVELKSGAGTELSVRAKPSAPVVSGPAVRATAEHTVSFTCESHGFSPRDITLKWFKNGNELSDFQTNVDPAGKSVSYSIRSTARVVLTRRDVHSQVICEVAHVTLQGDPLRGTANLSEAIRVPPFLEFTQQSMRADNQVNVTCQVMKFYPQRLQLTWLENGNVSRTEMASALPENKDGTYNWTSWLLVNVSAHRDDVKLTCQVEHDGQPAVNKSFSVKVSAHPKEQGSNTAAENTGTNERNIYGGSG
Kind of experiment: SPR, antibody captured on Protein A/G, ECD-His analyte. The method, then: (§1) The binding kinetics of anti-SIRPα antibodies to various SIRPα analytes are determined by surface plasmon resonance (SPR) using a Biacore 8K+(Cytiva). 1×HBS-EP+(Cytiva) is used as running buffer and for all the dilutions unless stated otherwise. The Series S CM5 sensorchip is activated with a 1:1 mixture of 0.1 M NHS (N-hydroxysuccinimide) and 0.4 M EDC (1-Ethyl-3-(3-dimethylaminopropyl) carbodiimide hydrochloride) for 420 seconds at a flow rate of 10 μl/min and immobilized with Protein A/G (Thermo Scientific, 10 μg/ml in 10 mM acetate pH 4.5) for 420 seconds at a flowrate of 10 μl/min resulting in approximately 3000 RU of Protein A/G on the surface. The sensorchip is then deactivated with 1 M ethanolamine HCl pH 8.5 for 420 seconds at a flowrate of 10 μl/min.
(§2) Antibodies (approximately 1 ug/ml) are captured on the Protein A/G surface for 60 seconds at a flowrate of 10 μl/min resulting in capture levels of approximately 240 RU. Dilutions of each SIRP protein (Extracellular Domain+His-Tag, with the concentrations as indicated) are injected as analytes over the captured antibody for 300 seconds of association at a flowrate of 30 μl/min, followed by a dissociation for 600 seconds.
In general terms: In SPR one partner is held on a chip, and binding of the other changes the refractive index at the surface.

Experiment [2] has as its target T2, Human SIRPαV1 (NP_542970.1), Extracellular Domain + His-Tag (human, UniProt P78324 31-373).
T2 construct: also called huSIRPαV1; hSIRPαV1; not shown: His-Tag
Kind of experiment: SPR, antibody captured on Protein A/G, ECD-His analyte, 1:1 fit. The method, then:
as §1, §2
(§3) The above procedures are used to measure binding properties of antibodies of the present disclosure. For each analyte used, the highest concentration was as indicated in Example 3 (see Table 36).

For experiment [3], the target named is T3, Human SIRPαV2 (CAA71403.1), Extracellular Domain + His-Tag (human, UniProt P78324 31-373).
T3 construct: also called huSIRPαV2; hSIRPαV2; not shown: His-Tag
The experiment is described as above. The method, then:
as §1, §2, §3

The target in experiment [4] is T4, cynoSIRPα (NP_001271679), Extracellular Domain + His-Tag (cynomolgus monkey).
T4 construct: also called CySIRPα NP_001271679; not shown: His-Tag
T4 chain: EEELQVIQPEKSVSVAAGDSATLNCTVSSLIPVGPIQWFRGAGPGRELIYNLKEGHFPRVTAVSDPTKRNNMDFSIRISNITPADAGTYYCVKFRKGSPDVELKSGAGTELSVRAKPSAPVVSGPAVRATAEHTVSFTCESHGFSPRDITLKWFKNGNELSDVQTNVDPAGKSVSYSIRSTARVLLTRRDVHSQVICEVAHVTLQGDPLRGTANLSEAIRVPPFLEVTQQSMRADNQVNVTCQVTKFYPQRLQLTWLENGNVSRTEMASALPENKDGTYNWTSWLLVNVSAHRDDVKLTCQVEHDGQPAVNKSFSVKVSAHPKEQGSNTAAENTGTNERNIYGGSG
The experiment is described as above. The method, then:
as §1, §2, §3

The target of experiment [5] is T5, cynoSIRPα (XP_015313155), Extracellular Domain + His-Tag (cynomolgus monkey).
T5 construct: also called CySIRPα XP_015313155; not shown: His-Tag
T5 chain: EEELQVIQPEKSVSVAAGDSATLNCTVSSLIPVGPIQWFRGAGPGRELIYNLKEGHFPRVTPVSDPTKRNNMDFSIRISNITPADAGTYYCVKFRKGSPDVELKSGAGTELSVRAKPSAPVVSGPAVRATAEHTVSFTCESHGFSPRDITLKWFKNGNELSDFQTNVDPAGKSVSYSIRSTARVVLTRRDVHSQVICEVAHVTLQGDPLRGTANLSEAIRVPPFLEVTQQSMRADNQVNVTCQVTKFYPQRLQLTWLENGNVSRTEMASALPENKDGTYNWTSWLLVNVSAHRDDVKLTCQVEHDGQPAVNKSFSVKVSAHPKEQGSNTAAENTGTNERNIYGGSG
The description is as above. How it is done:
as §1, §2, §3

T3 sequence (P78324 other isoform, or with tags, fused parts or gaps): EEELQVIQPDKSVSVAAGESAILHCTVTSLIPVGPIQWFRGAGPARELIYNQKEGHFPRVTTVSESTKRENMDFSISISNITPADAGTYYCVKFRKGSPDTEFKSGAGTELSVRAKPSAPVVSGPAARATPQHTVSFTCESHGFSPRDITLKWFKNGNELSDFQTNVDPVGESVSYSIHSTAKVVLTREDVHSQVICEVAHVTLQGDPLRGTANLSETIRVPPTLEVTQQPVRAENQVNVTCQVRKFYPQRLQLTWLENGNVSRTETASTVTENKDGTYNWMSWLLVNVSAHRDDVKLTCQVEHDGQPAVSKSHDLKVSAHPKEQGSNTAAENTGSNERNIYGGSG
T2 sequence (P78324 other isoform, or with tags, fused parts or gaps): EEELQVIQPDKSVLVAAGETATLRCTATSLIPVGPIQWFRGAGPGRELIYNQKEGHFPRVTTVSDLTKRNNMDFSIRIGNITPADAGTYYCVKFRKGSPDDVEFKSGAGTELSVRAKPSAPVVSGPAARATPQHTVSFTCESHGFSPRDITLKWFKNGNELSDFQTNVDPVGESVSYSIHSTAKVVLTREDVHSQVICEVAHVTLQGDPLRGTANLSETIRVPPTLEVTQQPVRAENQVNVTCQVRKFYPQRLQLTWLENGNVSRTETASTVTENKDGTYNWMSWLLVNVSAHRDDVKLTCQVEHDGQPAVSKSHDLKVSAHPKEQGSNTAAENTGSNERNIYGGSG

B1: Antibody E6 (antibody, human IgG1, kappa, L234A L235A, V domains shown)
VH: QVQLQESGPGLVRPSETLSLTCTVSGGSIRNYYWSWIRQPPGKGLEWIGFIYYNGRTFYNPSLKSRVTISLDKSKNQFSLKMTSVTAADTAVYYCARVRAYSGIGLDGTDVWGQGTTVTVSS
VL: DIVMTQSPLSLPVTPGEPASISCKSSQSLLYSNGYAYLDWYLQRPGQSPQLLIYLGSNRASGVPDRFSGSGSGTDFTLKISRVEAEDVGVYYCMQALQTPLTFGGGTKVEIKR
Take B1: the binding result in experiment [1] is “no binding (tested: 1000 nM)”. In addition, the Kd stood at 1.03 nM in experiment [2], 0.88 nM in experiment [3], 41 nM in experiment [4] and 41.6 nM in experiment [5]. The off-rate (koff) in experiment [2] was found to be 0.000386 s⁻¹; in experiment [3] it was 0.000375 s⁻¹; in experiment [4], 0.00774 s⁻¹; in experiment [5], 0.00729 s⁻¹. In addition, the kon was determined as 374000 M⁻¹ s⁻¹ in experiment [2], 429000 M⁻¹ s⁻¹ in experiment [3], 189000 M⁻¹ s⁻¹ in experiment [4] and 175000 M⁻¹ s⁻¹ in experiment [5].

B2: Antibody E11 (antibody, human IgG1, kappa, L234A L235A, V domains shown)
VH: QVQLQESGPGLVRPSETLSLTCTVSGGSIRNYYWSWIRQPPGKGLEWMGFIYDNGRTFYNPSLKSRVTISLDMSMNQFSLKMTSVTAADTAVYYCARVRAYSGIGLDGTDVWGQGTTVTVSS
VL: DIVMTQSPLSLPVTPGEPASISCKSSQSLLYSNGYAYLDWYLQRPGQSPQLLIYLGSNRASGVPDRFSGSGSGTDFTLKISRVEAEDVGVYYCMQALQTPLTFGGGTKVEIKR
Turning to B2, the binding result in experiment [1] is listed as “no binding (tested: 1000 nM)”. The equilibrium dissociation constant (Kd) in experiment [2] was determined as 1.41 nM; in experiment [3], 0.57 nM; in experiment [4], 20.3 nM; in experiment [5], 20 nM. The koff in experiment [2] stood at 0.000498 s⁻¹; in experiment [3], 0.000258 s⁻¹; in experiment [4], 0.00542 s⁻¹; in experiment [5] it was 0.00549 s⁻¹. Further, the kon in experiment [2] was 352000 M⁻¹ s⁻¹; in experiment [3], 453000 M⁻¹ s⁻¹; in experiment [4], 267000 M⁻¹ s⁻¹; in experiment [5] it was 275000 M⁻¹ s⁻¹.

B3: Antibody E7 (antibody, human IgG1, kappa, L234A L235A, V domains shown)
VH: QVQLQESGPGLVRPSETLSLTCTVSGGSIRNYYWSWIRQPPGKGLEWIGFIYYNGRTFYNPSLKSRVTISLDTSKNQFSLKMTSVTAADTAVYYCARVRAYSGIGLDGTDVWGQGTTVTVSS
VL: DIVMTQSPLSLPVTPGEPASISCKSSQSLLYSNGYAYLDWYLQRPGQSPQLLIYQGSNRASGVPDRFSGSGSGTDFTLKISRVEAEDVGVFYCMQALQTPLTFGGGTKVEIKR
On to B3, for which, in experiment [1], the binding result is given as “no binding (tested: 1000 nM)”. The Kd in experiment [2] amounted to 1.2 nM; in experiment [3], 1.18 nM; in experiment [4], 21.9 nM; in experiment [5], 21.2 nM. The koff in experiment [2] was 0.000453 s⁻¹; in experiment [3], 0.000552 s⁻¹; in experiment [4], 0.00346 s⁻¹; in experiment [5] it was 0.00337 s⁻¹. For the same molecule, the kon in experiment [2] stood at 378000 M⁻¹ s⁻¹; in experiment [3], 468000 M⁻¹ s⁻¹; in experiment [4], 158000 M⁻¹ s⁻¹; in experiment [5], 159000 M⁻¹ s⁻¹.

B4: Antibody E9 (antibody, human IgG1, kappa, L234A L235A, V domains shown)
VH: QVQLQESGPGLVRPSETLSLTCTVSGGSIRNYYWSWIRQPPGKGLEWIGFIYYNGRTFYNPSLKSRVTISLDMSINQFSLKMTSVTAADTAVYYCARVRAYSGIGLDGTDVWGQGTTVTVSS
VL: DIVMTQSPLSLPVTPGEPASISCKSSQSLLYSNAYNYLDWYLQRPGQSPQLLIYLGSNRASGVPDRFSGSGSGTDFTLKISRVEAEDVGVYYCMQALQTPLTFGGGTKVEIKR
With B4, the binding result in experiment [1] is given as “no binding (tested: 1000 nM)”. Moreover, the Kd worked out at 1.22 nM in experiment [2], 0.94 nM in experiment [3], 43.7 nM in experiment [4] and 40.8 nM in experiment [5]. In addition, the koff in experiment [2] was 0.000631 s⁻¹; in experiment [3], 0.000548 s⁻¹; in experiment [4], 0.014 s⁻¹; in experiment [5], 0.0132 s⁻¹. Further, the kon in experiment [2] worked out at 518000 M⁻¹ s⁻¹; in experiment [3], 583000 M⁻¹ s⁻¹; in experiment [4], 321000 M⁻¹ s⁻¹; in experiment [5] it was 324000 M⁻¹ s⁻¹.

B5: Antibody E10 (antibody, human IgG1, kappa, L234A L235A, V domains shown)
VH: QVQLQESGPGLVRPSETLSLTCTVSGGSIRNYYWSWIRQPPGKGLEWIGFIYYNGRTFYNPSLKSRVTISLDTSKNQFSLKMTSVTAADTAVYYCARVRAYSGIGLDGTDVWGQGTTVTVSS
VL: DIVMTQSPLSLPVTPGEPASISCKSSQSLLYSNGYAYLDWYLQRPGQSPQLLIYLGSNRASGVPDRFSGSGSGTDFTLKISRVEAEDVGVYYCMQALQTPLTFGGGTKVEIKR
For the molecule B5, in experiment [1], the binding result is reported as “no binding (tested: 1000 nM)”. For the same molecule, the dissociation constant Kd in experiment [2] amounted to 1.23 nM; in experiment [3] it was 1.2 nM; in experiment [4], 25.2 nM; in experiment [5], 23.7 nM. Moreover, the koff in experiment [2] amounted to 0.000518 s⁻¹; in experiment [3], 0.000596 s⁻¹; in experiment [4], 0.00545 s⁻¹; in experiment [5] it was 0.00526 s⁻¹. Besides, the on-rate constant (kon) in experiment [2] was determined as 422000 M⁻¹ s⁻¹; in experiment [3], 498000 M⁻¹ s⁻¹; in experiment [4], 216000 M⁻¹ s⁻¹; in experiment [5], 222000 M⁻¹ s⁻¹.

B6: Antibody E8 (antibody, human IgG1, kappa, L234A L235A, V domains shown)
VH: QVQLQESGPGLVRPSETLSLTCTVSGGSIRNYYWSWIRQPPGKGLEWMGFIYDNGRTFYNPSLKSRVTISLDMSMNQFSLKMTSVTAADTAVYYCARVRAYSGIGLDGTDVWGQGTTVTVSS
VL: DIVMTQSPLSLPVTPGEPASISCKSSQSLLYSNGYAYLDWYLQRPGQSPQLLIYQGSNRASGVPDRFSGSGSGTDFTLKISRVEAEDVGVFYCMQALQTPLTFGGGTKVEIKR
With B6, the binding result in experiment [1] is listed as “no binding (tested: 1000 nM)”. Also, the dissociation constant Kd in experiment [2] turned out to be 1.21 nM; in experiment [3], 0.54 nM; in experiment [4], 17.7 nM; in experiment [5], 16.6 nM. The koff in experiment [2] was found to be 0.00039 s⁻¹; in experiment [3] it was 0.000236 s⁻¹; in experiment [4], 0.0036 s⁻¹; in experiment [5], 0.00344 s⁻¹. In addition, the kon in experiment [2] was found to be 322000 M⁻¹ s⁻¹; in experiment [3], 435000 M⁻¹ s⁻¹; in experiment [4] it was 204000 M⁻¹ s⁻¹; in experiment [5], 207000 M⁻¹ s⁻¹.

B7: Antibody E12 (antibody, human IgG1, kappa, L234A L235A, V domains shown)
VH: QVQLQESGPGLVRPSETLSLTCTVSGGSIRNYYWSWIRQPPGKGLEWIGFIYYNGRTFYNPSLKSRVTISLDMSKNQFSLKMTSVTAADTAVYYCARVRAYSGIGLDGTDVWGQGTTVTVSS
VL: DIVMTQSPLSLPVTPGEPASISCKSSQSLLYSNAYNYLDWYLQRPGQSPQLLIYLGSNRASGVPDRFSGSGSGTDFTLKISRVEAEDVGVYYCMQALQTPLTFGGGTKVEIKR
With B7, the binding result in experiment [1] is recorded as “no binding (tested: 1000 nM)”. Moreover, the equilibrium dissociation constant (Kd) in experiment [2] amounted to 1.67 nM; in experiment [3], 1.26 nM; in experiment [4], 46.1 nM; in experiment [5], 42.2 nM. The koff is 0.000819 s⁻¹ in experiment [2], 0.000709 s⁻¹ in experiment [3], 0.0129 s⁻¹ in experiment [4] and 0.0125 s⁻¹ in experiment [5]. In addition, the kon in experiment [2] was found to be 490000 M⁻¹ s⁻¹; in experiment [3] it was 562000 M⁻¹ s⁻¹; in experiment [4], 279000 M⁻¹ s⁻¹; in experiment [5] it was 297000 M⁻¹ s⁻¹.
